Measured values published in patent US20150274826A1 (ARCH ONCOLOGY, published 2015).

T1: pig CD47 (pig, UniProt Q9GKE8 19-303)
T1 construct: whole, on cells; also called CD47 on porcine RBCs
T1 sequence (looked up): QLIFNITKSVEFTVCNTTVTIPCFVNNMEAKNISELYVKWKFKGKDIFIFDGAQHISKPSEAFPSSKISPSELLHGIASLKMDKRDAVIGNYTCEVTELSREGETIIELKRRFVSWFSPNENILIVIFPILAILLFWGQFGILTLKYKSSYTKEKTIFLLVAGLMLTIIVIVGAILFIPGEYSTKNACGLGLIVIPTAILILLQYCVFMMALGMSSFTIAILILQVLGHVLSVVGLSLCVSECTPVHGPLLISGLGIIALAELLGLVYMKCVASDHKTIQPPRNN

T2: mouse CD47 (mouse, UniProt Q61735 19-303)
T2 construct: whole, on cells; also called CD47 on mouse RBCs; CD47 on 4T1 cells
T2 sequence (looked up): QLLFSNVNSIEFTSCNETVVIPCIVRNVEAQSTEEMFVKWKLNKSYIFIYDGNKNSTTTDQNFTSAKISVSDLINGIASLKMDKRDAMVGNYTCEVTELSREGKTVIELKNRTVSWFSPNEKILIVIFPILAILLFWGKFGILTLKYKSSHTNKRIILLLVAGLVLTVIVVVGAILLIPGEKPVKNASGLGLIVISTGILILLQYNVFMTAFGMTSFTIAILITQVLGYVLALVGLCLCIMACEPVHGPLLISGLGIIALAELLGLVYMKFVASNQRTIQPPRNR

T3: dog CD47 (dog, UniProt A0A8I3PM61 19-310)
T3 construct: also called CD47 on dog RBCs
T3 sequence: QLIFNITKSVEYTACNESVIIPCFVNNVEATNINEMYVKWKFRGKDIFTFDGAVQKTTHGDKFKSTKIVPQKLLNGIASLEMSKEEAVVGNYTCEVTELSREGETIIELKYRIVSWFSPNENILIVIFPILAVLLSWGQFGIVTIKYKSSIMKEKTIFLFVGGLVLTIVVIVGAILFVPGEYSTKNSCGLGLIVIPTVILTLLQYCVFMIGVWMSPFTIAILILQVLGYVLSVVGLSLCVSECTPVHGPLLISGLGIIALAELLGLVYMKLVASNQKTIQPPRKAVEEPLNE

T4: rat CD47 (rat, UniProt P97829 19-303)
T4 construct: whole, on cells; also called CD47 on rat RBCs
T4 sequence (looked up): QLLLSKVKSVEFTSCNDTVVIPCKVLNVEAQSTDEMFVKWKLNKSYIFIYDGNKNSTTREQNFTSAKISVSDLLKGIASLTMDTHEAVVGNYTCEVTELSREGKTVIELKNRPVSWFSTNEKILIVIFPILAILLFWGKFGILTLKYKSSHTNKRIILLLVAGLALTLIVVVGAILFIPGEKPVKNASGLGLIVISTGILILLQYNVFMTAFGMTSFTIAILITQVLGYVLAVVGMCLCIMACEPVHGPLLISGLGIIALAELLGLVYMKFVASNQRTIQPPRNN


How the values were obtained:
Assay in all cases: flow cytometry on RBCs, CHO supernatant 10 ng/ml
[1] = target: T1, pig CD47
Method: (§1) RBCs are incubated for 60 minutes on ice with tissue culture supernatants containing the secreted humanized antibodies at a concentration of 10 ng/ml in a solution of phosphate buffered saline, pH 7.2, 2.5 mM EDTA (PBS+E), or with various concentrations of purified antibodies. Cells are then washed with cold PBS+E, and incubated for an additional hour on ice with FITC labeled donkey anti-human antibody (Jackson Immuno Research Labs, West Grove, Pa.; Catalogue #709-096-149) in PBS+E. Cells are then washed with PBS+E, and antibody binding is analyzed using a BD FACSAria Cell Sorter (Becton Dickinson) or a C6 Accuri Flow Cytometer (Becton Dickinson). Antibody binding is quantitated by comparison of mean fluorescence values relative to that of chimeric antibody >VxP037-01LC (SEQ ID NO:7))/>VxPO37-01HC (SEQ ID NO:57). The mean fluorescence value for each antibody is divided by the mean fluorescence value for the chimeric antibody.

[2] = target: T2, mouse CD47
Method: as §1

[3] = target: T3, dog CD47
Method: as §1

[4] = target: T5, human CD47 (human, UniProt Q08722 19-323)
T5 construct: whole, on cells; also called CD47 on human RBCs; CD47 on OV10 cells
T5 sequence (Q08722 19-323): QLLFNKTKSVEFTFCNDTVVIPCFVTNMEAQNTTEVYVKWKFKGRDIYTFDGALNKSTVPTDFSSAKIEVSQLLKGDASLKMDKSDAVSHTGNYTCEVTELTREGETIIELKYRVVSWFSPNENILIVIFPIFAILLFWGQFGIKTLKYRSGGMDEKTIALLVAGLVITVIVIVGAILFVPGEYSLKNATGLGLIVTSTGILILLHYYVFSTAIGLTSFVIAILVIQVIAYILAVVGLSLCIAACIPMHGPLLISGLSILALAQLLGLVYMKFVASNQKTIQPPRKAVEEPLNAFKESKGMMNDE
Method: as §1

[5] = target: T4, rat CD47
Method: as §1

| Binder | mean fluorescence relative to chimeric antibody [1] | mean fluorescence relative to chimeric antibody [2] | mean fluorescence relative to chimeric antibody [3] | mean fluorescence relative to chimeric antibody [4] | mean fluorescence relative to chimeric antibody [5] |
| --- | --- | --- | --- | --- | --- |
| Clone 14 (pVxK7b-037-hum14-LC / pVxK7b-037-hum14-HC) (antibody, human IgG1, kappa) heavy: not shown light: DVVMTQSPLSLPVTLGQPASISCRSSQSLVHSNGNTYLHWYQQKPGKAPKLLIYKVSYRFSGVPDRFSGSGSGTDFTLKISRVEAEDVGVYYCSQNTHVPRTFGQGTKVEIKRTVAAPSVFIFPPSDEQLKSGTASVVCLLNNFYPREAKVQWKVDNALQSGNSQESVTEQDSKDSTYSLSSTLTLSKADYEKHKVYACEVTHQGLSSPVTKSFNRGEC | 1.4 ratio | 1.5 ratio | 1.3 ratio | 1.1 ratio | 3.2 ratio |
| Clone 23 (pVxK7b-037-hum23-LC / pVxK7b-037-hum23-HC) (antibody, human IgG1, kappa) heavy: not shown light: DIVMTQTPLSLPVTPGEPASISCRSSQSLVHSNGNTYLHWYQQKPGKAPKLLIYKVSYRFSGVPDRFSGSGSGTDFTLKISRVEAEDVGVYYCSQNTHVPRTFGQGTKVEIKRTVAAPSVFIFPPSDEQLKSGTASVVCLLNNFYPREAKVQWKVDNALQSGNSQESVTEQDSKDSTYSLSSTLTLSKADYEKHKVYACEVTHQGLSSPVTKSFNRGEC | 1.7 ratio | 1.4 ratio | 1.1 ratio | 1.2 ratio | 3.3 ratio |
| Clone 20 (pVxK7b-037-hum20-LC / pVxK7b-037-hum20-HC) (antibody, human IgG1, kappa) heavy: not shown light: DIVMTQTPLSLPVTPGEPASISCRSSQSLVHSNGNTYLHWYLQKPGQSPQLLIYKVSYRFSGVPDRFSGSGSGTDFTLKISRVEAEDVGVYYCSQNTHVPRTFGQGTKVEIKRTVAAPSVFIFPPSDEQLKSGTASVVCLLNNFYPREAKVQWKVDNALQSGNSQESVTEQDSKDSTYSLSSTLTLSKADYEKHKVYACEVTHQGLSSPVTKSFNRGEC | 1.7 ratio | 1.5 ratio | 1.1 ratio | 1.3 ratio | 1.9 ratio |
| Clone 19 (pVxK7b-037-hum19-LC / pVxK7b-037-hum19-HC) (antibody, human IgG1, kappa) heavy: not shown light: DVVMTQSPLSLPVTLGQPASISCRSSQSLVHSNGNTYLHWYQQKPGKAPKLLIYKVSYRFSGVPDRFSGSGSGTDFTLKISRVEAEDVGVYYCSQNTHVPRTFGQGTKVEIKRTVAAPSVFIFPPSDEQLKSGTASVVCLLNNFYPREAKVQWKVDNALQSGNSQESVTEQDSKDSTYSLSSTLTLSKADYEKHKVYACEVTHQGLSSPVTKSFNRGEC | 1.3 ratio | 1 ratio | 1.2 ratio | 0.7 ratio | 2.6 ratio |
| Clone 2 (pVxK7b-037-hum02-LC / pVxK7b-037-hum02-HC) (antibody, human IgG1, kappa, V domains shown) VH: QVQLQESGPGLVKPSQTLSLTCTVSGYTFTNYYVFWVRQARGQRLEWIGDINPVNGDTNFNEKFKNRVTISADKSISTAYLQWSSLKASDTAMYYCARGGYTMDYWGQGTLVTVSS VL: DVVMTQSPLSLPVTLGQPASISCRSSQSLVHSNGNTYLHWYQQKPGQAPRLLIYKVSYRFSGVPSRFSGSGSGTEFTLTISSLQPDDFATYYCSQNTHVPRTFGQGTKVEIKR | 1.2 ratio | 1.2 ratio | 1 ratio | 1 ratio | 2.6 ratio |
| Clone 15 (pVxK7b-037-hum15-LC / pVxK7b-037-hum15-HC) (antibody, human IgG1, kappa, V domains shown) VH: QVQLQESGPGLVKPSQTLSLTCTVSGYTFTNYYVFWVRQARGQRLEWIGDINPVNGDTNFNEKFKNRLTISKDTSKNQVVLTMTNMDPVDTATYYCARGGYTMDYWGQGTLVTVSS VL: AIQLTQSPSSLSASVGDRVTITCRSSQSLVHSNGNTYLHWYQQKPGQAPRLLIYKVSYRFSGVPSRFSGSGSGTEFTLTISSLQPDDFATYYCSQNTHVPRTFGQGTKVEIKR | 1.2 ratio | 1.3 ratio | 1.1 ratio | 1 ratio | 2.4 ratio |
| Clone 21 (pVxK7b-037-hum21-LC / pVxK7b-037-hum21-HC) (antibody, human IgG1, kappa, V domains shown) VH: QVQLQESGPGLVKPSQTLSLTCTVSGYTFTNYYVFWVRQARGQRLEWIGDINPVNGDTNFNEKFKNRLTISKDTSKNQVVLTMTNMDPVDTATYYCARGGYTMDYWGQGTLVTVSS VL: AIQLTQSPSSLSASVGDRVTITCRSSQSLVHSNGNTYLHWYQQKPGQAPRLLIYKVSYRFSGVPDRFSGSGSGTDFTLKISRVEAEDVGVYYCSQNTHVPRTFGQGTKVEIKR | 1.4 ratio | 1.2 ratio | 1.1 ratio | 1.2 ratio | 2.8 ratio |

Further lines, results first:

| mean fluorescence relative to chimeric antibody [1] | mean fluorescence relative to chimeric antibody [2] | mean fluorescence relative to chimeric antibody [3] | mean fluorescence relative to chimeric antibody [4] | mean fluorescence relative to chimeric antibody [5] | Binder |
| --- | --- | --- | --- | --- | --- |
| 0.9 ratio | 0.9 ratio | 0.9 ratio | 0.7 ratio | 1.7 ratio | Clone 3 (pVxK7b-037-hum03-LC / pVxK7b-037-hum03-HC) (antibody, human IgG1, kappa) heavy: not shown light: DVVMTQSPLSLPVTLGQPASISCRSSQSLVHSNGNTYLHWYQQKPGKAPKLLIYKVSYRFSGVPDRFSGSGSGTDFTLKISRVEAEDVGVYYCSQNTHVPRTFGQGTKVEIKRTVAAPSVFIFPPSDEQLKSGTASVVCLLNNFYPREAKVQWKVDNALQSGNSQESVTEQDSKDSTYSLSSTLTLSKADYEKHKVYACEVTHQGLSSPVTKSFNRGEC |
| 1 ratio | 1 ratio | 1 ratio | 1 ratio | 1 ratio | chimeric antibody VxP037-01LC-Pro/VxP037-01HC-Pro (antibody, human IgG1, kappa, V domains shown, also called Chimera; VxP037-01LC/VxP037-01HC) VH: EVQLQQFGAELVKPGASMKLSCKASGYTFTNYYVFWVKQRPGQGLEWIGDINPVNGDTNFNEKFKNKATLTVDKSSTTTYLQLSSLTSEDSAVYYCTRGGYTMDYWGQGTLVTVSS VL: DVVMTQTPLSLSVSLGDQASISCRSSQSLVHSNGNTYLHWYLQKPGQSPKLLIYKVSYRFSGVPDRFSGSGSGTDFTLKISRVEAEDLGVYFCSQNTHVPRTFGQGTKVEIKR |
| 1.4 ratio | 1.2 ratio | 1 ratio | 1.1 ratio | 2.8 ratio | Clone 22 (pVxK7b-037-hum22-LC / pVxK7b-037-hum22-HC) (antibody, human IgG1, kappa, V domains shown) VH: QVQLQESGPGLVKPSQTLSLTCTVSGYTFTNYYVFWVRQARGQRLEWIGDINPVNGDTNFNEKFKNRLTISKDTSKNQVVLTMTNMDPVDTATYYCARGGYTMDYWGQGTLVTVSS VL: EIVLTQSPATLSVSPGERATLSCRSSQSLVHSNGNTYLHWYQQKPGQAPRLLIYKVSYRFSGVPSRFSGSGSGTDFTFTISSLEAEDAATYYCSQNTHVPRTFGQGTKVEIKR |
| 1.1 ratio | 1.2 ratio | 1.1 ratio | 0.9 ratio | 2.1 ratio | Clone 6 (pVxK7b-037-hum06-LC / pVxK7b-037-hum06-HC) (antibody, human IgG1, kappa, V domains shown) VH: QVQLQESGPGLVKPSQTLSLTCTVSGYTFTNYYVFWVRQARGQRLEWIGDINPVNGDTNFNEKFKNRLTISKDTSKNQVVLTMTNMDPVDTATYYCARGGYTMDYWGQGTLVTVSS VL: DIQMTQSPSSLSASVGDRVTITCRSSQSLVHSNGNTYLHWYLQKPGQSPQLLIYKVSYRFSGIPARFSGSGSGTEFTLTISSLQSEDFAVYYCSQNTHVPRTFGQGTKVEIKR |
